Data published in the supplement of paper PMC10724198.
± gives the standard deviation of the averaged measurements.

Test system: Saccharomyces cerevisiae
Assay: protein stability index of tFT-peptide fusion (C-terminal peptide) (PSI (0-1 scale)); higher = more stable (slower turnover)
Conditions: genetic background: wild type; temperature: 30 C
Description: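 Multiplexed protein stability (MPS) profiling in S. cerevisiae. Random 12-aa peptides (tFT-X12 library) are fused to the C-terminus of a sfGFP-mCherry tandem fluorescent timer, after mCherry and a GGGS linker. Cells are FACS-sorted into 8 mCherry/sfGFP bins and deep-sequenced. The protein stability index (PSI) is the read-weighted bin average, scaled from 0 (unstable) to 1 (stable). Only peptides with >10 reads are reported; cells were grown at 30 °C in SC-His with glucose.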
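Further: PSI is a weighted mean of sequencing reads over stability bins, variants kept only with over 10 reads, mCherry proximal and sfGFP distal, peptide attached via GGGS linker.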

| Sequence | protein stability index |
| --- | --- |
| KGINALICTGSI | 0.6601 ± 0.0043 |
| KGKKRKKKRNFR | 0.68 ± 0.031 |
| KGKRMSRLYSCG | 0.667 ± 0.012 |
| KGRGKRRGARAT | 0.73 ± 0.053 |
| KGRNYVGRIRNN | 0.509 ± 0.024 |
| KGVWLGGGCGLR | 0.685 ± 0.025 |
| KHKAQQGSHGPQ | 0.616 ± 0.017 |
| KHTGFAGGMTWT | 0.707 ± 0.016 |
| KIANNEIEYARD | 0.598 ± 0.037 |
| KIERSKKKRRKG | 0.66 ± 0.079 |
| KIIKIHLFWGII | 0.478 ± 0.041 |
| KIIKIKKQGENK | 0.597 ± 0.016 |
| KIIQDCSSLSKK | 0.683 ± 0.033 |
| KIKKNKKKKRIN | 0.658 ± 0.026 |
| KIKKTITKNTKR | 0.726 ± 0.0082 |
| KIKNNIKKKKNR | 0.697 ± 0.024 |
| KILAVKIRRLYL | 0.532 ± 0.018 |
| KINRTKTAPITR | 0.724 ± 0.044 |
| KIRRKIRIYKRK | 0.629 ± 0.1 |
| KKCSNNPMTLRI | 0.655 ± 0.032 |
| KKEGEREQGVRW | 0.703 ± 0.037 |
| KKEKKKTKKEKR | 0.696 ± 0.067 |
| KKEKKQRKKING | 0.672 ± 0.075 |
| KKENKQEKKNMI | 0.709 ± 0.016 |
| KKEQRKKRQQKT | 0.6958 ± 0.0066 |

| Sequence | protein stability index |
| --- | --- |
| KKGRAEKKKRRK | 0.65 ± 0.051 |
| KKICLEWMLLQS | 0.7011 ± 0.0067 |
| KKIKKKRTEPQP | 0.694 ± 0.02 |
| KKIKKRNIKKKT | 0.67 ± 0.032 |
| KKKANEMGKNRE | 0.715 ± 0.028 |
| KKKEKKRGRRKV | 0.688 ± 0.073 |
| KKKIKKKKEKNT | 0.664 ± 0.032 |
| KKKIKKQKKKQI | 0.70912 ± 0.00033 |
| KKKKIEEKKDCK | 0.715 ± 0.023 |
| KKKKKEKKQERK | 0.69526 ± 0.00024 |
| KKKKKINRKKKK | 0.705 ± 0.14 |
| KKKKKKKKKKKN | 0.595 ± 0.034 |
| KKKKKKTTPKTN | 0.745 ± 0.038 |
| KKKKKKYRKKKK | 0.668 ± 0.0087 |
| KKKKKQRGKKQK | 0.722 ± 0.014 |
| KKKKKQRMKRNG | 0.674 ± 0.049 |
| KKKKKRGKTKKK | 0.734 ± 0.055 |
| KKKKKTKEINLK | 0.6698 ± 0.00079 |
| KKKKKTNKDKGQ | 0.66 ± 0.067 |
| KKKKMKKNKERK | 0.708 ± 0.049 |
| KKKKNKKNKKQY | 0.676 ± 0.074 |
| KKKKQNKKKIKK | 0.68 ± 0.086 |
| KKKKYKKKRKIK | 0.74 ± 0.015 |
| KKKNKEQTKKTK | 0.719 ± 0.024 |
| KKKNQGKKKIKK | 0.699 ± 0.085 |

| Sequence | protein stability index |
| --- | --- |
| KKKNTKKKNEQS | 0.725 ± 0.014 |
| KKKQKKKKHEQK | 0.7 ± 0.034 |
| KKKQMREQPKNE | 0.7315 ± 0.0047 |
| KKKRDKKGKKKQ | 0.697 ± 0.012 |
| KKKSKKKNKKKE | 0.766 ± 0.11 |
| KKKVEIKCRKRQ | 0.667 ± 0.0067 |
| KKLELLNRDRKV | 0.641 ± 0.042 |
| KKLKKTTNQTKK | 0.616 ± 0.022 |
| KKLNKNKSKINR | 0.683 ± 0.01 |
| KKMMQNKKQTEI | 0.727 ± 0.036 |
| KKNEKGSKGAEY | 0.66 ± 0.03 |
| KKNKKKKKRARY | 0.707 ± 0.038 |
| KKNYKNIEKKET | 0.658 ± 0.11 |
| KKQKKEKKKSHK | 0.757 ± 0.068 |
| KKQLIPPKHHQR | 0.661 ± 0.022 |
| KKRKKKKIIQTK | 0.65 ± 0.11 |
| KKRNKNKKTKEE | 0.68 ± 0.0099 |
| KKRRPKINEIKE | 0.643 ± 0.013 |
| KKRVHNRKEETE | 0.691 ± 0.091 |
| KKTERRNKKKIR | 0.695 ± 0.031 |
| KKTKKKKQTKRK | 0.677 ± 0.038 |
| KKVRTNTSKEIK | 0.692 ± 0.15 |
| KKWKKKNNKRNG | 0.707 ± 0.17 |
| KLDDEVLFKRNI | 0.692 ± 0.057 |
| KLKEDRRIGRNR | 0.668 ± 0.033 |

| Sequence | protein stability index |
| --- | --- |
| KLKTTEKTNPRE | 0.805 ± 0.14 |
| KLQKTKNPKSNT | 0.6624 ± 0.0046 |
| KLTKGKIQLHIK | 0.593 ± 0.017 |
| KMIDNKQKSVAV | 0.675 ± 0.012 |
| KMRKIRSKRLKW | 0.681 ± 0.028 |
| KNDKHQTRKSTT | 0.703 ± 0.11 |
| KNKENLNINNKR | 0.747 ± 0.0078 |
| KNKQQKKNKQKR | 0.643 ± 0.045 |
| KNKRKTNLRKKT | 0.6961 ± 0.00039 |
| KNMNQIKKKNRE | 0.664 ± 0.061 |
| KNNERIDKRKKI | 0.726 ± 0.063 |
| KNNKEKQKKKKR | 0.663 ± 0.084 |
| KNNKNQKELDTK | 0.677 ± 0.065 |
| KNPSLSSPLPHP | 0.6908 ± 0.0041 |
| KNSKNIRNKTNE | 0.711 ± 0.017 |
| KNSTKHIKNEKN | 0.774 ± 0.044 |
| KNTRLKKEKVSR | 0.829 ± 0.23 |
| KPCGRAEERRSG | 0.674 ± 0.035 |
| KPLDPNRHVIPG | 0.652 ± 0.021 |
| KPLLSPPTIFPL | 0.711 ± 0.032 |
| KPQQKQEKLTNP | 0.736 ± 0.043 |
| KPYKTYKIIKRE | 0.6578 ± 0.0028 |
| KQFKFPLRVIRA | 0.519 ± 0.024 |
| KQKKAETQATQK | 0.678 ± 0.038 |
| KQPGAGGGEVGG | 0.6555 ± 0.002 |

| Sequence | protein stability index |
| --- | --- |
| KQRGSKVIIKVD | 0.663 ± 0.011 |
| KQRGSNYGCGYG | 0.615 ± 0.026 |
| KQWGTHSSWLEV | 0.701 ± 0.076 |
| KREEGKTKKKKQ | 0.666 ± 0.023 |
| KREKAQEGQGGD | 0.709 ± 0.025 |
| KRESNSKQTEKV | 0.7 ± 0.099 |
| KRGNEEYSRGNN | 0.692 ± 0.012 |
| KRGNGIEGRVGG | 0.685 ± 0.011 |
| KRKKNISKTEKS | 0.724 ± 0.016 |
| KRKKNTRENGED | 0.778 ± 0.022 |
| KRKRSERRRGKP | 0.693 ± 0.015 |
| KRMPDERAKAGP | 0.694 ± 0.0079 |
| KRNCVVLLPMDR | 0.682 ± 0.23 |
| KRNEQQKNDRKK | 0.653 ± 0.046 |
| KRRIGKYEERME | 0.661 ± 0.022 |
| KRRKREEKKSMT | 0.742 ± 0.097 |
| KRRTGKEGRIRR | 0.723 ± 0.021 |
| KSDSRISGTVVV | 0.652 ± 0.059 |
| KSDTAWSHPYPS | 0.6793 ± 0.00097 |
| KSEKQKSNRKEF | 0.686 ± 0.071 |
| KSGEHSCCRSAD | 0.602 ± 0.038 |
| KSKKQYTKKTRK | 0.709 ± 0.0078 |
| KSKLSSRTKLTH | 0.64 ± 0.03 |
| KSKTENKEKATK | 0.716 ± 0.1 |
| KSLNTAGVLTGR | 0.68 ± 0.034 |

| Sequence | protein stability index |
| --- | --- |
| KSPIPMRAPGNS | 0.633 ± 0.053 |
| KSQKKKKKNKNF | 0.57 ± 0.044 |
| KSSAGAGQCPLS | 0.712 ± 0.019 |
| KSYKRICTKKSR | 0.782 ± 0.096 |
| KTDSEPNKRIHK | 0.707 ± 0.09 |
| KTEGQEKRVMSE | 0.734 ± 0.046 |
| KTKDGKNNRRTN | 0.687 ± 0.009 |
| KTKEETNENRNL | 0.719 ± 0.027 |
| KTNWKKKERKKA | 0.675 ± 0.027 |
| KTQNVNDQGEET | 0.644 ± 0.062 |
| KTTERRQTKSRV | 0.688 ± 0.085 |
| KTVPRMESRVRA | 0.718 ± 0.053 |
| KVKREEKRKRED | 0.712 ± 0.033 |
| KVLGRPVGMAYI | 0.666 ± 0.034 |
| KVWGPAVPAVPP | 0.666 ± 0.065 |
| KWNVFRKGRGNI | 0.793 ± 0.047 |
| KYTSQRSPRIFR | 0.573 ± 0.2 |
| KYVYFAPVLDVI | 0.659 ± 0.033 |
| LAAGGSAGTRVV | 0.656 ± 0.026 |
| LAAVCFYPFCCF | 0.641 ± 0.017 |
| LACWAGGLGWGG | 0.772 ± 0.044 |
| LAFPFSPLAPQI | 0.691 ± 0.077 |
| LAGNNVSFMRVR | 0.714 ± 0.059 |
| LAGPYGRVTVFF | 0.67 ± 0.029 |
| LAHACQRRQTEA | 0.786 ± 0.11 |

| Sequence | protein stability index |
| --- | --- |
| LALTIVKFGDLS | 0.789 ± 0.057 |
| LAPASPTHPHPP | 0.679 ± 0.0087 |
| LAPLYFSPFPFP | 0.689 ± 0.041 |
| LAPPHLPPPLHK | 0.678 ± 0.053 |
| LAPPPPVPPTHS | 0.721 ± 0.052 |
| LARGPDETPAGA | 0.668 ± 0.18 |
| LASPPIIVFSQM | 0.556 ± 0.016 |
| LATGLVIETLWE | 0.753 ± 0.042 |
| LAVGAAGVLFGG | 0.776 ± 0.03 |
| LAVLRFHLRRHL | 0.668 ± 0.065 |
| LAVSSAPLLSSF | 0.723 ± 0.071 |
| LCACRMVGFRGG | 0.538 ± 0.045 |
| LCCTLPSRGVIV | 0.5993 ± 0.0059 |
| LCGGLSLPFAHV | 0.691 ± 0.097 |
| LCLFPSSFRLPP | 0.6489 ± 0.0051 |
| LCMGVRGRVGVF | 0.682 ± 0.088 |
| LCPGYVDSRCRG | 0.6959 ± 0.0034 |
| LCRVFAGFLSVG | 0.689 ± 0.036 |
| LCSIESGPICIL | 0.676 ± 0.0097 |
| LCSSASFFFSVL | 0.67 ± 0.059 |
| LCSSSLRPFFPE | 0.754 ± 0.024 |
| LCSTSLTPMRPT | 0.699 ± 0.021 |
| LCTALLRSLTVG | 0.744 ± 0.13 |
| LCWGGRCGSGPG | 0.72 ± 0.051 |
| LDLELNRRCRTS | 0.675 ± 0.06 |

| Sequence | protein stability index |
| --- | --- |
| LDLYRYLQDLGC | 0.731 ± 0.018 |
| LDSWKQDLYTVC | 0.674 ± 0.033 |
| LDTVVNGAIPIL | 0.699 ± 0.051 |
| LDVQPVHPVDPE | 0.778 ± 0.013 |
| LEAINRKGIWQE | 0.639 ± 0.083 |
| LEFFPSSRFFGF | 0.773 ± 0.026 |
| LEITKKKIGLKY | 0.716 ± 0.13 |
| LETVPVPPPPSA | 0.747 ± 0.057 |
| LETVWRFECGWG | 0.7759 ± 0.0048 |
| LEWVRPCDLFPC | 0.7198 ± 0.005 |
| LFDLVVDSYGHI | 0.753 ± 0.034 |
| LFFFPPVPISSV | 0.601 ± 0.0008 |
| LFFSIVSPPCGR | 0.748 ± 0.068 |
| LFGLLSSPLCVD | 0.63 ± 0.042 |
| LFLFPPVLTFPL | 0.625 ± 0.035 |
| LFLRPSGLPTLL | 0.69 ± 0.083 |
| LFLSAFFFRFFD | 0.629 ± 0.045 |
| LFPAGSSLCGAI | 0.753 ± 0.061 |
| LFPGVHRVEDRA | 0.675 ± 0.034 |
| LFPRSVPIAINL | 0.6259 ± 0.0045 |
| LFPSFRSLSFVI | 0.672 ± 0.035 |
